Data reported in patent publication US20250043302A1, “MUTATED HYDROXYPHENYLPYRUVATE DIOXYGENASE POLYPEPTIDE, AND CODING GENE AND USE THEREOF” (BEIJING DABEINONG BIOTECHNOLOGY CO., LTD., priority 2021, published 2025).
Substitutions are numbered along the chain they refer to. In names and notes the source's numbering stands.

B1: BnHPPD-02: nucleotide sequence encoding wild-type Brassica napus HPPD; vector DBN11742 (nucleic acid)
DNA: ATGGGACATGAAAACGCGGCAGTGTGTGAAACTCAACAACATGATGACGCCGCCTCCCCGGGGTTTAAACTTGTCGGGTTCTCAAAATTTGTTAGGAAGAATCCAAAGTCTGACAAGTTCAAGGTGAAACGCTTCCACCACATCGAGTTCTGGTGCGGGGATGCAACAAATGTTTCACGCCGCTTTTCATGGGGACTAGGAATGAGGTTTAGCGCAAAGAGTGATCTCTCCACTGGTAATATGGTTCATGCGAGCTACTTGCTCACATCTGGAGACCTGAGATTCCTCTTCACCGCACCATATTCTCCCTCCCTGTCAGCTGGTGAAGCTCAGCCTTCAGCAACTGCAAGTATCCCTTCGTTTGATCATGCATCGTGCAGGTCTTTCTTCAGTTCACATGGACTCGGCGTCAGAGCAGTAGCGATCGAAGTAGAGGATGCTGAATCAGCTTTCTCCATATCTGTCGCCAACGGCGCGGTGCCTTCTTCTCCACCAAACGTCTTGAATGGTGCTGTTACCATTGCTGAGGTGAAGCTGTACGGAGATGTTGTTTTAAGATATGTTTCATATTACAATGGGACCGTTTCTTTTCTTCCCGGCTTTGAATCTGTTGATGATACTTCTTCCTTCCCTCTTGATTATGGGATCAGGCGGCTGGACCACGCCGTCGGCAACGTGCCGGAGTTAGGTCCTGCTTTGACATATCTTGCCGGCTTCACTGGATTCCATCAATTTGCAGAGTTTACGGCTGACGACGTGGGGACCGCGGAGAGTGGGCTGAACTCAGCAGTCTTGGCCAACAATGATGAAATGGTGCTCCTCCCCATCAATGAACCTGTGCATGGAACAAAGAGAAAGTCGCAGATTCAAACATTTTTAGAGCACAATGAGGGAGCTGGGCTACAGCACCTCGCATTGATGTCAGAAGATATTTTTCGAACGTTGAGGGAGATGCGGAAACGATCTGGTGTAGGCGGCTTTGACTTCATGCCATCCCCTCCGCCAACCTACTACAAGAACCTGAAGAAGAGGGTTGGAGACGTCCTTTCCGAGGAGCAAATTGAAGAATGTGAGGAGCTTGGAATTCTGGTGGACAGAGATGATCAAGGAACACTACTTCAGATCTTCACAAAACCATTGGGCGACAGGCCAACGATATTCATTGAGATCATTCAGCGCGTTGGATGCATGAAGCGTGATGAGGAAGGGAAGGTCTACCAGAGTGGCGGTTGTGGTGGATTTGGAAAAGGAAATTTTTCTGAGCTGTTCAAAAGCATAGAAGAGTATGAGAAAACATTGGAGGCCAAGCAGCTTGTTGGTTGA
modifications: BnHPPD-02 Nucleotide Sequence
notes: vector DBN11742
B2: BnHPPDm-F372A-F383W-02: nucleotide sequence encoding Brassica napus HPPD with F372A+F383W; vector DBN11745 (nucleic acid)
DNA: B1 DNA with T1126G, T1127C, T1160G, C1161G
modifications: BnHPPDm-F372A-F383W-02 Nucleotide Sequence
notes: vector DBN11745
B3: BnHPPDm-F372A-02: nucleotide sequence encoding Brassica napus HPPD with F372A; vector DBN11743 (nucleic acid)
DNA: B1 DNA with T1126G, T1127C
modifications: BnHPPDm-F372A-02 Nucleotide Sequence
notes: vector DBN11743

system: Arabidopsis thaliana T1 plants; experiment: Isoxaflutole tolerance of transgenic Arabidopsis thaliana T1 plants (spray, bleached leaf area grade, damage score); type: in vivo; parameters: Scores (pesticide damage): scale not given here; conditions: isoxaflutole 35 g ai/ha (0.5x field concentration), spray, Arabidopsis thaliana T1 plants
Outline: (§1)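 T1 transformants selected by glufosinate; 18-day-old plants, with empty-vector and wild-type controls, sprayed with topramezone (25–200 g ai/ha), isoxaflutole (35–280 g ai/ha) or mesotrione (52.5–420 g ai/ha), water as 0×. Bleached leaf area fraction scored at 7 DAT as grades 0–3.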

B1 was tested, and the Resistance evaluation was “Non-resistant”.
In the case of B2, the Resistance evaluation is reported as “Moderately”.
For B3, the Resistance evaluation was “Poorly”.

Compared with B1, B2 is lower in “Scores (pesticide damage)” value: 100 for the first, 29 for the second.

With B3 the “Scores (pesticide damage)” value was 52.

same assay, conditions: isoxaflutole 35 g ai/ha (0.5x field concentration), spray, Arabidopsis thaliana T1 plants, 16 plants

First: B1
Second: B2
The “Classification and statistics of the grade of pesticide damage: Grade 0 (number of plants)” value of the first is lower: 0 for the first, 5 for the second.

With B3 the “Classification and statistics of the grade of pesticide damage: Grade 0 (number of plants)” value was 0.

Going from B1 to B2, the “Classification and statistics of the grade of pesticide damage: Grade 1 (number of plants)” value rises from 0 to 8.

B3 was tested, and the “Classification and statistics of the grade of pesticide damage: Grade 1 (number of plants)” value was 7.

Compared with B1, B2 is higher in “Classification and statistics of the grade of pesticide damage: Grade 2 (number of plants)” value: 0 for the first, 3 for the second.

With B3 the “Classification and statistics of the grade of pesticide damage: Grade 2 (number of plants)” value was 9.

Compared with B1, B2 is lower in “Classification and statistics of the grade of pesticide damage: Grade 3 (number of plants)” value: 16 for the first, 0 for the second.

In the case of B3, the “Classification and statistics of the grade of pesticide damage: Grade 3 (number of plants)” value is reported as 0.

same assay, conditions: isoxaflutole 70 g ai/ha (1x field concentration), spray, Arabidopsis thaliana T1 plants

B1 was tested, and the Resistance evaluation was “Non-resistant”.
For B2, the Resistance evaluation was “Moderately”.
B3 was tested, and the Resistance evaluation was “Non-resistant”.

Going from B1 to B2, the “Scores (pesticide damage)” value falls from 100 to 33.

B3 was tested, and the “Scores (pesticide damage)” value was 100.

same assay, conditions: isoxaflutole 70 g ai/ha (1x field concentration), spray, Arabidopsis thaliana T1 plants, 16 plants

First: B1
Second: B2
The “Classification and statistics of the grade of pesticide damage: Grade 0 (number of plants)” value of the first is lower: 0 for the first, 3 for the second.

With B3 the “Classification and statistics of the grade of pesticide damage: Grade 0 (number of plants)” value was 0.

Going from B1 to B2, the “Classification and statistics of the grade of pesticide damage: Grade 1 (number of plants)” value rises from 0 to 10.

B3 was tested, and the “Classification and statistics of the grade of pesticide damage: Grade 1 (number of plants)” value was 0.

First: B1
Second: B2
The “Classification and statistics of the grade of pesticide damage: Grade 2 (number of plants)” value of the first is lower: 0 for the first, 3 for the second.

B3 was tested, and the “Classification and statistics of the grade of pesticide damage: Grade 2 (number of plants)” value was 0.

Going from B1 to B2, the “Classification and statistics of the grade of pesticide damage: Grade 3 (number of plants)” value falls from 16 to 0.

For B3, the “Classification and statistics of the grade of pesticide damage: Grade 3 (number of plants)” value was 16.

system: Arabidopsis thaliana T1 plants; experiment: Mesotrione tolerance of transgenic Arabidopsis thaliana T1 plants (spray, bleached leaf area grade, damage score); type: in vivo; parameters: Scores: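 damage score 0-100 computed as Σ(N×S)/(T×M)×100 over grades 0-3 with higher meaning more damage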; conditions: mesotrione 52.5 g ai/ha; Arabidopsis thaliana T1 plants
Outline: as §1

For B1, the Resistance evaluation was “Non-resistant”.
B2 was tested, and the Resistance evaluation was “Moderately”.
For B3, the Resistance evaluation was “Poorly resistant”.

Going from B1 to B2, the Scores falls from 100 to 31.

B3 showed a Scores of 63.

same assay, conditions: mesotrione 52.5 g ai/ha; Arabidopsis thaliana T1 plants; 16 plants

Compared with B1, B2 is higher in “Grade 0 (classification and statistics of the grade of pesticide damage; number of plants)” value: 0 for the first, 5 for the second.

With B3 the “Grade 0 (classification and statistics of the grade of pesticide damage; number of plants)” value was 0.

First: B1
Second: B2
The “Grade 1 (classification and statistics of the grade of pesticide damage; number of plants)” value of the first is lower: 0 for the first, 8 for the second.

For B3, the “Grade 1 (classification and statistics of the grade of pesticide damage; number of plants)” value was 4.

Compared with B1, B2 is higher in “Grade 2 (classification and statistics of the grade of pesticide damage; number of plants)” value: 0 for the first, 2 for the second.

In the case of B3, the “Grade 2 (classification and statistics of the grade of pesticide damage; number of plants)” value is reported as 10.

Going from B1 to B2, the “Grade 3 (classification and statistics of the grade of pesticide damage; number of plants)” value falls from 16 to 1.

B3 was tested, and the “Grade 3 (classification and statistics of the grade of pesticide damage; number of plants)” value was 2.

same assay, conditions: mesotrione 105 g ai/ha; Arabidopsis thaliana T1 plants

With B1 the Resistance evaluation was “Non-resistant”.
In the case of B2, the Resistance evaluation is reported as “Poorly resistant”.
B3 was tested, and the Resistance evaluation was “Non-resistant”.

Compared with B1, B2 is lower in Scores: 100 for the first, 40 for the second.

In the case of B3, the Scores is reported as 100.

same assay, conditions: mesotrione 105 g ai/ha; Arabidopsis thaliana T1 plants; 16 plants

B1 and B2 are the same in “Grade 0 (classification and statistics of the grade of pesticide damage; number of plants)” value: 0 for the first, 0 for the second.

With B3 the “Grade 0 (classification and statistics of the grade of pesticide damage; number of plants)” value was 0.

Compared with B1, B2 is higher in “Grade 1 (classification and statistics of the grade of pesticide damage; number of plants)” value: 0 for the first, 13 for the second.

With B3 the “Grade 1 (classification and statistics of the grade of pesticide damage; number of plants)” value was 0.

First: B1
Second: B2
The “Grade 2 (classification and statistics of the grade of pesticide damage; number of plants)” value of the first is lower: 0 for the first, 3 for the second.

In the case of B3, the “Grade 2 (classification and statistics of the grade of pesticide damage; number of plants)” value is reported as 0.

First: B1
Second: B2
The “Grade 3 (classification and statistics of the grade of pesticide damage; number of plants)” value of the first is higher: 16 for the first, 0 for the second.

B3 was tested, and the “Grade 3 (classification and statistics of the grade of pesticide damage; number of plants)” value was 16.

system: Arabidopsis thaliana T1 plants; experiment: Topramezone tolerance of transgenic Arabidopsis thaliana T1 plants (spray, bleached leaf area grade, damage score); type: in vivo; conditions: number of plants; topramezone 25 g ai/ha (1×), 7 DAT; Table 4
Outline: as §1

Going from B1 to B2, the “Classification and statistics of the grade of pesticide damage: Grade 0” value rises from 0 to 6.

B3 was tested, and the “Classification and statistics of the grade of pesticide damage: Grade 0” value was 0.

Going from B1 to B2, the “Classification and statistics of the grade of pesticide damage: Grade 1” value rises from 0 to 6.

In the case of B3, the “Classification and statistics of the grade of pesticide damage: Grade 1” value is reported as 4.

Compared with B1, B2 is higher in “Classification and statistics of the grade of pesticide damage: Grade 2” value: 0 for the first, 4 for the second.

With B3 the “Classification and statistics of the grade of pesticide damage: Grade 2” value was 12.

First: B1
Second: B2
The “Classification and statistics of the grade of pesticide damage: Grade 3” value of the first is higher: 16 for the first, 0 for the second.

B3 was tested, and the “Classification and statistics of the grade of pesticide damage: Grade 3” value was 0.

same assay, conditions: number of plants; topramezone 100 g ai/ha (4×), 7 DAT; Table 4

First: B1
Second: B2
The “Classification and statistics of the grade of pesticide damage: Grade 0” value of the first is lower: 0 for the first, 3 for the second.

With B3 the “Classification and statistics of the grade of pesticide damage: Grade 0” value was 0.

Compared with B1, B2 is higher in “Classification and statistics of the grade of pesticide damage: Grade 1” value: 0 for the first, 8 for the second.

With B3 the “Classification and statistics of the grade of pesticide damage: Grade 1” value was 0.

First: B1
Second: B2
The “Classification and statistics of the grade of pesticide damage: Grade 2” value of the first is lower: 0 for the first, 5 for the second.

B3 was tested, and the “Classification and statistics of the grade of pesticide damage: Grade 2” value was 0.

Compared with B1, B2 is lower in “Classification and statistics of the grade of pesticide damage: Grade 3” value: 16 for the first, 0 for the second.

In the case of B3, the “Classification and statistics of the grade of pesticide damage: Grade 3” value is reported as 16.

same assay, conditions: pesticide damage score 0-100; topramezone 25 g ai/ha (1×), 7 DAT; Table 4

Going from B1 to B2, the Scores falls from 100 to 29.

B3 showed a Scores of 58.

same assay, conditions: pesticide damage score 0-100; topramezone 100 g ai/ha (4×), 7 DAT; Table 4

Going from B1 to B2, the Scores falls from 100 to 38.

B3 showed a Scores of 100.

same assay, conditions: topramezone 25 g ai/ha (1×), 7 DAT; Table 4

With B1 the Resistance evaluation was “non-resistant (non-resistant plants (scores 68-100))”.
With B2 the Resistance evaluation was “moderately”.
B3 was tested, and the Resistance evaluation was “poorly”.

same assay, conditions: topramezone 100 g ai/ha (4×), 7 DAT; Table 4

With B1 the Resistance evaluation was “non-resistant (non-resistant plants (scores 68-100))”.
In the case of B2, the Resistance evaluation is reported as “poorly”.
B3 was tested, and the Resistance evaluation was “non-resistant (non-resistant plants (scores 68-100))”.
